Legend:
[1] = biological target: BRCA1 DBD1 (human, UniProt P38398 330-554); test: BLI; 150 mM KCl; BLI (BLItz, SAX sensors, immobilized biotin-DNA) in Buffer H: 20 mM HEPES pH 7.5, 150 mM KCl, 5 mM TCEP, 5% glycerol, 25 C; steady-state 1:1 fit; errors 95% CI, n=3; conditions: protein: recombinant, tags: Ni-NTA purified (details not given)
[2] = biological target: BRCA1 DBD2 (human, UniProt P38398 894-1057); test: as above; conditions: protein: recombinant, tags: Ni-NTA purified (details not given)
[3] = label: 5' biotin on strand 1, 5' Cy3 on strand 2, blunt

Sequence of BRCA1 DBD1 (P38398 330-554): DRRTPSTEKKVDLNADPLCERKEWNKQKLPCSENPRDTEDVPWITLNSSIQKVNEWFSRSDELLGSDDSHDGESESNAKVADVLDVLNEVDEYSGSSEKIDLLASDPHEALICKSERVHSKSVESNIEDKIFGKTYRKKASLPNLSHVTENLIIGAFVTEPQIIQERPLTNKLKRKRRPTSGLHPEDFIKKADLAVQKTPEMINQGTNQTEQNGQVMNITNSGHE
Sequence of BRCA1 DBD2 (P38398 894-1057): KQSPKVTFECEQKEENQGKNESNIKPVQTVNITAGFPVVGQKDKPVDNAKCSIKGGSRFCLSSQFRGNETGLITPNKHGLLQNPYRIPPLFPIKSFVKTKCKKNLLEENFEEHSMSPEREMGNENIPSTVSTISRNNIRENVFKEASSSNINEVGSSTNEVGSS

B1: Bioss60R (ssDNA) (ssDNA)
DNA: CCATGGCTCCTGAGCTAGCTGCAGTAGCCTAAAGGATGAAACTAGGATCTTATGCTCCAT
Binder B1 has a Kd ([1]; label: 5' biotin) of 68.4 ± 33.8 nM and a Kd ([2]; label: 5' biotin) of 40.8 ± 3.7 nM.

B2: BioG4Telo (G4) (structured_DNA)
DNA: TTAGGGTTAGGGTTAGGGTTAGGG
B2 gave a Kd ([1]; label: 5' biotin, G4) of 67.2 ± 12.5 nM and a Kd ([2]; label: 5' biotin, G4) of 34.7 ± 16.1 nM.

B3: Biods60R (dsDNA) (dsDNA)
DNA 1: CCATGGCTCCTGAGCTAGCTGCAGTAGCCTAAAGGATGAAACTAGGATCTTATGCTCCAT
DNA 2: ATGGAGCATAAGATCCTAGTTTCATCCTTTAGGCTACTGCAGCTAGCTCAGGAGCCATGG
B3 gave a Kd [1, 3] of 35.5 ± 9 nM and a Kd [2, 3] of 44.6 ± 6 nM.
